Here are results for 7 sequences from patent US20160193316A1 (priority 1994, published 2016).

Assay [1] has as its target T1, DRB1*0701 (DR7) (Homo sapiens, UniProt P01903+P01911, A100R/A102G/A103Q/D57E/D86V/E43K/F76Y/K127E/L162R/M171V/P40G/Q125H/Q99D/R33Q/R42Y/R54Q/S133A/S66F/T210M/V115G/Y107V/Y59L/Y89S).
T1 construct: endogenous in cells; host or cells: Pitout
In words: biochemical. It counts as binding.

Assay [2] concerns the target T2, DRB5*0101 (DR2w2β2) (Homo sapiens, UniProt P01903+Q30154).
T2 construct: expressed in transfected cells; host or cells: L416.3 (fibroblasts) or GM3107
It counts as binding.

Assay [3] deals with T3, DRB1*1302 (DR6w19) (Homo sapiens, UniProt P01903+P01911, A100E/A169T/K41T/L162R/M171V/P40S/Q125H/Q178H/Q39Y/Q99D/R42S/S66N/T262R/V115G/W38E/Y61H).
T3 construct: endogenous in cells; host or cells: H0301
T3 sequence (P01903 26-254, other chains not shown): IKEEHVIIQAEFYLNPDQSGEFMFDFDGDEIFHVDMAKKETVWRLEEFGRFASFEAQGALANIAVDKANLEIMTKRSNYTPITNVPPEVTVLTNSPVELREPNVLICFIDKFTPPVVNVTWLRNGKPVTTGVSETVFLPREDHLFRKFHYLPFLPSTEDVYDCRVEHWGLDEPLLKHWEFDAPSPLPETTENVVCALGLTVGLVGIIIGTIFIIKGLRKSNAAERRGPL
Kind of assay: HLA class II peptide binding assay. As to conditions: DR3a motif peptides; unit not given; exemplary 15-mer containing the core sequence.

The target in assay [4] is T4, DRB1*0301 (DR3) (Homo sapiens, UniProt P01903+P01911, A100K/A102G/A103R/A169T/F55Y/I96L/K41T/L162R/M171V/P40S/Q125H/Q178H/Q39Y/R42S/S66N/T106N/T262R/W38E/Y61H).
T4 construct: endogenous in cells; host or cells: MAT
Kind of assay: HLA class II peptide binding assay (pH 4.5). The conditions noted are these: DR3a motif peptides; unit not given; exemplary 15-mer containing the core sequence.

Assay [5] concerns the target T5, DRB1*1501 (DR2w2β1) (Homo sapiens, UniProt P01903+P01911).
T5 construct: expressed in transfected cells; host or cells: L466.1 (fibroblasts)
Kind of assay: HLA class II peptide binding assay. As to conditions: DR3a motif peptides; unit not given; exemplary 15-mer containing the core sequence.

The target in assay [6] is T6, DRB1*0802 (DR8w2) (Homo sapiens, UniProt P01903+P01911, A100R/A103L/A169T/F76Y/H45Y/I96F/K41T/L162R/M171V/P40S/Q125H/Q178H/Q39Y/Q99D/R218S/R42G/S66Y/V115G/W38E).
T6 construct: endogenous in cells; host or cells: OLL
In words: biochemical. It counts as binding.

Assay [7] has as its target T7, DRB1*1101 (DR5w11) (Homo sapiens, UniProt P01903+P01911, A100R/A169T/A87E/I96F/K41T/L162R/M171V/P40S/Q125H/Q178H/Q39Y/Q99D/R42S/S66Y/T262R/V115G/W38E).
T7 construct: endogenous in cells; host or cells: Sweig
Kind of assay: biochemical. It counts as binding.

Assay [8] deals with T8, DRB1*0101 (DR1) (Homo sapiens, UniProt P01903+P01911, A100R/D57E/F55L/F60I/F76Y/I96L/L162R/M171V/P40L/Q125E/R42F/V115G/Y59C).
T8 construct: endogenous in cells; host or cells: LG2
T8 sequence (P01903 26-254 partner, other chains not shown): as the sequence (P01903 26-254, other chains not shown) above
Kind of assay: HLA class II peptide binding assay. The conditions noted are these: for DR1 binding information: DR3a motif peptides, unit not given, exemplary 15-mer containing the core sequence; for DR1 binding data: Table XIXb, Malaria Super Motif Peptides With Binding Data.

Assay [9] concerns the target T9, DRB1*0401 (DR4w4) (Homo sapiens, UniProt P01903+P01911, A100K/A169T/F76Y/I96L/K127E/L162R/M171V/N62H/P40V/Q125Y/R42H/S133A/S149N/S66Y/V115G/V209L/W38E).
T9 construct: endogenous in cells; host or cells: Preiss
In words: HLA class II peptide binding assay. As to conditions: for DR4w4 binding information: DR3a motif peptides, unit not given, exemplary 15-mer containing the core sequence; for DR4w4 binding data: Table XIXb.

The target in assay [10] is T10, DRB1*0405 (DR4w15) (Homo sapiens, UniProt P01903+P01911, A100R/A169T/D86S/F76Y/I96L/K127E/L162R/M171V/N62H/P40V/Q125Y/R42H/S133A/S149N/S66Y/V115G/V209L/W38E).
T10 construct: endogenous in cells; host or cells: KT3
In words: HLA class II peptide binding assay. The conditions noted are these: for DR4w15 binding information: DR3a motif peptides, unit not given, exemplary 15-mer containing the core sequence; for DR4w15 binding data: Table XIXb.

In assay [11] the target is T11, DRB4*0101 (DRw53) (Homo sapiens, UniProt P01903+P13762, G164S).
T11 construct: expressed in transfected cells; host or cells: L257.6 (fibroblasts)
In words: HLA class II peptide binding assay (pH 5.0). As to conditions: for DRw53 binding information: DR3a motif peptides, unit not given, exemplary 15-mer containing the core sequence; for DRw53 binding data: Table XIXb.

The target in assay [12] is T12, DRB1*1201 (DR5w12) (Homo sapiens, UniProt P01903+P01911, A100R/A169T/D57E/D86V/F55L/H45Y/K41T/L162R/M171V/P40S/Q125H/Q178H/Q39Y/Q99D/R42G/S66L/T262R/V114A/V67L/W38E/Y59H/Y61H/Y89S).
T12 construct: endogenous in cells; host or cells: Herluf
Kind of assay: HLA class II peptide binding assay. As to conditions: for DR5w12 binding data: Table XIXb.

T9 sequence (P01903 26-254 partner, other chains not shown): as the sequence (P01903 26-254, other chains not shown) above
T7 sequence (P01903 26-254, other chains not shown): as above

As for LYADSAWEN, in [1], the DR7 binding information is recorded as -0.0014. Also, the DR2w2β2 binding information in [2] was -0.0010. This sequence had a DR6w19 binding information in assay [3] of 0.0003. Also, in [4], the DR3 binding information is 0.3500. In assay [5], this sequence had a DR2w2β1 binding information of 0.0005. Also, in [6], the DR8w2 binding information was -0.0009. In addition, in assay [7], the DR5w11 binding information is recorded as -0.0006. Moreover, the DR1 binding information in assay [8] is on record as 0.0002.

Take VCNDEVDLY: the DR4w4 binding information in assay [9] is -0.0014. The same sequence yielded a DR7 binding information in [1] of -0.0003. In addition, the DR2w2β2 binding information in [2] is on record as 0.1300. In addition, in [4], the DR3 binding information was -0.0006. This sequence yielded a DR4w15 binding information in assay [10] of -0.0004. Besides, in assay [11], the DRw53 binding information is -0.0010. Also, in assay [5], the DR2w2β1 binding information was -0.0006. The sequence further had a DR8w2 binding information in [6] of -0.0003. The sequence further returned a DR5w11 binding information in assay [7] of 0.0001. This sequence also yielded a DR1 binding information in assay [8] of 0.0003.

With VEVEKTASC, the DR4w4 binding information in [9] is recorded as 0.0030. Further, the DR7 binding information in assay [1] came to 0.0073. For the same sequence, in assay [12] (DR3a motif peptides, unit not given, exemplary 15-mer containing the core sequence), the DR5w12 binding information was 0.0001. The sequence also returned a DR2w2β2 binding information in assay [2] of -0.0006. Moreover, in assay [4], the DR3 binding information is on record as -0.0041. In addition, the DR4w15 binding information in assay [10] is -0.0014. For the same sequence, in [11], the DRw53 binding information came to 0.0022. In [6], the DR8w2 binding information came out at 0.0006. In [7], this sequence showed a DR5w11 binding information of 0.0003. Moreover, the DR1 binding information in assay [8] was found to be 0.0001.

Consider VNDFQISKY, for which, in [9], the DR4w4 binding data was -0.0007. The sequence also yielded a DR7 binding data in assay [1] of -0.0003. The same sequence registered a DR5w12 binding data in assay [12] of 0.0001. Besides, in [2], the DR2w2β2 binding data is on record as -0.0005. For the same sequence, the DR4w15 binding data in [10] is recorded as -0.0014. Besides, the DRw53 binding data in [11] is -0.0005. The DR8w2 binding data in assay [6] was -0.0003. The DR5w11 binding data in assay [7] is given as -0.0002. This sequence registered a DR1 binding data in [8] of 0.0001.

Regarding WDEWSPCSV, the DR4w4 binding data in assay [9] was -0.0007. The sequence also yielded a DR7 binding data in assay [1] of -0.0003. Further, in assay [12], the DR5w12 binding data was determined as 0.0001. For the same sequence, the DR2w2β2 binding data in assay [2] is recorded as -0.0006. In [10], this sequence displayed a DR4w15 binding data of -0.0014. In [11], this sequence registered a DRw53 binding data of -0.0006. In [6], this sequence returned a DR8w2 binding data of -0.0003. The sequence further returned a DR5w11 binding data in [7] of -0.0002. For the same sequence, the DR1 binding data in assay [8] is 0.0001.

Turning to YGRLEIPAI, the DR4w4 binding data in assay [9] is recorded as -0.0007. Also, the DR7 binding data in assay [1] is reported as -0.0003. In [12], this sequence gave a DR5w12 binding data of 0.0002. In [2], the DR2w2β2 binding data is reported as -0.0005. Also, the DR4w15 binding data in assay [10] is given as 0.0170. This sequence had a DRw53 binding data in assay [11] of -0.0005. For the same sequence, the DR8w2 binding data in assay [6] turned out to be 0.0021. The sequence further had a DR5w11 binding data in assay [7] of -0.0002. The DR1 binding data in assay [8] is given as 0.0004.

Consider YLLMDCSGS, for which, in assay [9], the DR4w4 binding data is 0.0150. Further, the DR7 binding data in assay [1] came to 0.0046. In addition, in [12], the DR5w12 binding data is 0.0001. Also, the DR2w2β2 binding data in [2] is reported as 0.0096. This sequence gave a DR4w15 binding data in [10] of -0.0014. The DRw53 binding data in assay [11] is on record as -0.0010. In assay [6], this sequence had a DR8w2 binding data of 0.0007. For the same sequence, the DR5w11 binding data in [7] is recorded as -0.0004. The same sequence showed a DR1 binding data in [8] of 0.0015.
